According to paper PMC3946754, “Two-Stage pH Control Strategy Based on the pH Preference of Acetoin Reductase Regulates Acetoin and 2,3-Butanediol Distribution in Bacillus subtilis” (PLoS ONE, 2014):

Assays:
[1] = substrate: NC(=O)C1=CN([C@@H]2O[C@H](COP(=O)(O)OP(=O)(O)OC[C@H]3O[C@@H](n4cnc5c(N)ncnc54)[C@H](O)[C@@H]3O)[C@@H](O)[C@H]2O)C=CC1; test: NADH oxidation assay, Lineweaver-Burk plot; assay type: biochemical, Bacillus subtilis; conditions: reduction, co-substrate acetoin (standard assay 10 mM, pH 6.5), printed kcat/Km does not fit kcat and Km, varied: cofactor
[2] = substrate: CC(=O)C(C)O; test: NADH oxidation assay, Lineweaver-Burk plot; assay type: biochemical, Bacillus subtilis; conditions: reduction, co-substrate NADH (standard assay 0.2 mM NADH, PBS pH 6.5, 25°C preincubation), stereoisomer not told, 25.0 °C
purified protein = substrate: CC(O)C(C)O; test: purified protein; conditions: oxidation, co-substrate NAD+ (standard assay 1.2 mM NAD+, pH 8.5, 25°C preincubation), stereoisomer not told, printed kcat/Km does not fit kcat and Km
[3] = substrate: NC(=O)c1ccc[n+]([C@@H]2O[C@H](COP(=O)(O)OP(=O)(O)OC[C@H]3O[C@@H](n4cnc5c(N)ncnc54)[C@H](O)[C@@H]3O)[C@@H](O)[C@H]2O)c1; test: NAD+ reduction assay, Lineweaver-Burk plot; assay type: biochemical, Bacillus subtilis; conditions: oxidation, co-substrate 2,3-butanediol (standard assay 10 mM, pH 8.5), printed kcat/Km does not fit kcat and Km, varied: cofactor

B1: AR/BDH (acetoin reductase/2,3-butanediol dehydrogenase) (Bacillus subtilis subsp. subtilis str. 168) (protein)
chain: MKAARWHNQKDIRIEHIEEPKTEPGKVKIKVKWCGICGSDLHEYLGGPIFIPVDKPHPLTNETAPVTMGHEFSGEVVEVGEGVENYKVGDRVVVEPIFATHGHQGAYNLDEQMGFLGLAGGGGGFSEYVSVDEELLFKLPDELSYEQGALVEPSAVALYAVRSSKLKAGDKAAVFGCGPIGLLVIEALKAAGATDIYAVELSPERQQKAEELGAIIVDPSKTDDVVAEIAERTGGGVDVAFEVTGVPVVLRQAIQSTTIAGETVIVSIWEKGAEIHPNDIVIKERTVKGIIGYRDIFPAVLSLMKEGYFSADKLVTKKIVLDDLIEEGFGALIKEKSQVKILVRPN
notes: full length, C-terminal His6 tag (from primer, not reported cut); pMA5-bdhA expressed in B. subtilis JNA 3-10; Ni-NTA and Superdex 200; subunit 38-39 kDa by SDS-PAGE
B1 gave a Km [1] of 0.04 ± 0.001 mmol/L, a Vmax [1] of 14.2 µM/min and a kcat [1] of 0.0235 ± 0.00035 s⁻¹. For the same protein, the Km [2] was 0.16 ± 0.005 mmol/L, the Vmax [2] was 5.54 µM/min and the kcat [2] was 0.00567 ± 0.0002 s⁻¹. The kcat/Km [2] was 35.5 M⁻¹ s⁻¹, the Km (purified protein) was 0.26 ± 0.009 mmol/L and the Vmax (purified protein) was 2.34 µM/min. The kcat (purified protein) was 0.00233 s⁻¹, the Km [3] was 0.08 ± 0.002 mmol/L and the Vmax [3] was 14 µM/min. The kcat [3] was 0.0232 ± 0.000267 s⁻¹.
